Test results: patent US20220061310A1

Molecular target: PDGF receptor PDGFRβ on the surface of 293-SL/PR cells (transformed 293T cell line)
Assay: cell-based or functional assay

## recombinant human PDGF B (rhPDGF B) (from UniProt P01127 82-190) (ligand)
  bioactivity by luciferase assay in 293-SL/PR reporter cells; PDGF at 30 ng/mL lyophilized with 3 mg/mL collagen (experimental group): 310000 RLU/sec
  bioactivity by luciferase assay in 293-SL/PR reporter cells; PDGF solution (control group) at 120 ng/mL: 340000 RLU/sec
